What was measured:
HeLa Kyoto [1] = assay: solubility change mitosis vs G1/S (difference of NP-40 vs SDS log2 ratios) (log2 ratio difference); higher = more soluble in mitosis
HeLa Kyoto [2] = assay: thermal stability score vs G1/S (z-score of summed log2 fold changes over temperatures); higher = more thermally stable than in G1/S
HeLa Kyoto [3] = assay: solubility in G1/S (NP-40 vs SDS abundance) (log2 ratio); higher = more soluble; details: cell cycle stage: G1/S
HeLa Kyoto [4] = assay: melting temperature (median over replicates), in situ; higher = more thermally stable
[5] = cell cycle stage: early G1 (4.5 h after nocodazole release)
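For melting temperature (median over replicates), in situ in this document: HeLa Kyoto cells synchronized by double thymidine or nocodazole block, proteins quantified by TMT10plex mass spectrometry, three independent biological replicates.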
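For solubility change mitosis vs G1/S (difference of NP-40 vs SDS log2 ratios) in this document: synchronized HeLa Kyoto cells (double thymidine block for G1/S, nocodazole release for mitosis), protein amounts in NP-40 versus SDS lysates quantified by mass spectrometry, three biological replicates.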
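For solubility in G1/S (NP-40 vs SDS abundance) in this document: HeLa Kyoto cells arrested at G1/S by double thymidine block, proteins quantified by TMT10plex mass spectrometry in mild NP-40 versus SDS extracts, three biological replicates.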
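For thermal stability score vs G1/S (z-score of summed log2 fold changes over temperatures) in this document: synchronized HeLa Kyoto cells, proteins quantified by TMT10plex mass spectrometry, three biological replicates, mitosis taken 0.5 h after nocodazole release, G1/S directly after double thymidine block.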

Row | Substance | solubility change mitosis (log2) (HeLa Kyoto [1]) | thermal stability score (HeLa Kyoto [2]; [5]) | thermal stability score (HeLa Kyoto [2]; cell cycle stage: mitosis) | solubility in G1/S (log2) (HeLa Kyoto [3]) | melting temperature (HeLa Kyoto [4]; cell cycle stage: G1/S) | melting temperature (HeLa Kyoto [4]; cell cycle stage: mitosis)
1 | MSGTNLDGNDEFDEQLRMQELYGDGKDGDTQTDAGGEPDSLGQQPTDTPYEWDLDKKAWFPKITEDFIATYQANYGFSNDGASSSTANVEDVHARTAEEPPQEKAPEPTDARKKGEKRKAESGWFHVEEDRNTNVYVSGLPPDITVDEFIQLMSKFGIIMRDPQTEEFKVKLYKDNQGNLKGDGLCCYLKRESVELALKLLDEDEIRGYKLHVEVAKFQLKGEYDASKKKKKCKDYKKKLSMQQKQLDWRPERRAGPSRMRHERVVIIKNMFHPMDFEDDPLVLNEIREDLRVECSKFGQIRKLLLFDRHPDGVASVSFRDPEEADYCIQTLDGRWFGGRQITAQAWDGTTDYQVEETSREREERLRGWEAFLNAPEANRGLRRSDSVSASERAGPSRARHFSEHPSTSKMNAQETATGMAFEEPIDEKKFEKTEDGGEFEEGASENNAKESSPEKEAEEGCPEKESEEGCPKRGFEGSCSQKESEEGNPVRGSEEDSPKKESKKKTLKNDCEENGLAKESEDDLNKESEEEVGPTKESEEDDSEKESDEDCSEKQSEDGSEREFEENGLEKDLDEEGSEKELHENVLDKELEENDSENSEFEDDGSEKVLDEEGSEREFDEDSDEKEEEEDTYEKVFDDESDEKEDEEYADEKGLEAADKKAEEGDADEKLFEESDDKEDEDADGKEVEDADEKLFEDDDSNEKLFDEEEDSSEKLFDDSDERGTLGGFGSVEEGPLSTGSSFILSSDDDDDDI [HTATSF1] | -0.0715 | 5.21 | 9.34 | -0.256 | 47.4 °C | 49.4 °C
2 | MNVNQSVPPVPPFGQPQPIYPGYHQSSYGGQSGSTAPAIPYGAYNGPVPGYQQTPPQGMSRAPPSSGAPPASTAQAPCGQAAYGQFGQGDVQNGPSSTVQMQRLPGSQPFGSPLAPVGNQPPVLQPYGPPPTSAQVATQLSGMQISGAVAPAPPSSGLGFGPPTSLASASGSFPNSGLYGSYPQGQAPPLSQAQGHPGIQTPQRSAPSQASSFTPPASGGPRLPSMTGPLLPGQSFGGPSVSQPNHVSSPPQALPPGTQMTGPLGPLPPMHSPQQPGYQPQQNGSFGPARGPQSNYGGPYPAAPTFGSQPGPPQPLPPKRLDPDAIPSPIQVIEDDRNNRGTEPFVTGVRGQVPPLVTTNFLVKDQGNASPRYIRCTSYNIPCTSDMAKQAQVPLAAVIKPLARLPPEEASPYVVDHGESGPLRCNRCKAYMCPFMQFIEGGRRFQCCFCSCINDVPPQYFQHLDHTGKRVDAYDRPELSLGSYEFLATVDYCKNNKFPSPPAFIFMIDVSYNAIRTGLVRLLCEELKSLLDFLPREGGAEESAIRVGFVTYNKVLHFYNVKSSLAQPQMMVVSDVADMFVPLLDGFLVNVNESRAVITSLLDQIPEMFADTRETETVFVPVIQAGMEALKAAECAGKLFLFHTSLPIAEAPGKLKNRDDRKLINTDKEKTLFQPQTGAYQTLAKECVAQGCCVDLFLFPNQYVDVATLSVVPQLTGGSVYKYASFQVENDQERFLSDLRRDVQKVVGFDAVMRVRTSTGIRAVDFFGAFYMSNTTDVELAGLDGDKTVTVEFKHDDRLNEESGALLQCALLYTSCAGQRRLRIHNLALNCCTQLADLYRNCETDTLINYMAKFAYRGVLNSPVKAVRDTLITQCAQILACYRKNCASPSSAGQLILPECMKLLPVYLNCVLKSDVLQPGAEVTTDDRAYVRQLVTSMDVTETNVFFYPRLLPLTKSPVESTTEPPAVRASEERLSNGDIYLLENGLNLFLWVGASVQQGVVQSLFSVSSFSQITSGLSVLPVLDNPLSKKVRGLIDSLRAQRSRYMKLTVVKQEDKMEMLFKHFLVEDKSLSGGASYVDFLCHMHKEIRQLLS [SEC24C] | -0.121 | 1.19 | 1.53 | 0.0263 | 50.6 °C | 50.3 °C
3 | C20ORF27 | -0.035 | -0.424 | -1.13 | 0.205 | 53.3 °C | 54.8 °C
4 | MPFDFRRFDIYRKVPKDLTQPTYTGAIISICCCLFILFLFLSELTGFITTEVVNELYVDDPDKDSGGKIDVSLNISLPNLHCELVGLDIQDEMGRHEVGHIDNSMKIPLNNGAGCRFEGQFSINKVPGNFHVSTHSATAQPQNPDMTHVIHKLSFGDTLQVQNIHGAFNALGGADRLTSNPLASHDYILKIVPTVYEDKSGKQRYSYQYTVANKEYVAYSHTGRIIPAIWFRYDLSPITVKYTERRQPLYRFITTICAIIGGTFTVAGILDSCIFTASEAWKKIQLGKMH [ERGIC1] | -0.178 | -0.418 | -0.585 | 0.18 | 55.2 °C | 55.6 °C
5 | MDWLMGKSKAKPNGKKPAAEERKAYLEPEHTKARITDFQFKELVVLPREIDLNEWLASNTTTFFHHINLQYSTISEFCTGETCQTMAVCNTQYYWYDERGKKVKCTAPQYVDFVMSSVQKLVTDEDVFPTKYGREFPSSFESLVRKICRHLFHVLAHIYWAHFKETLALELHGHLNTLYVHFILFAREFNLLDPKETAIMDDLTEVLCSGAGGVHSGGSGDGAGSGGPGAQNHVKER [MOB2] | 0.0638 | 0.797 | 0.832 | -0.0333 | 50.1 °C | –
6 | MAQALSEEEFQRMQAQLLELRTNNYQLSDELRKNGVELTSLRQKVAYLDKEFSKAQKALSKSKKAQEVEVLLSENEMLQAKLHSQEEDFRLQNSTLMAEFSKLCSQMEQLEQENQQLKEGAAGAGVAQAGPLVDGELLRLQAENTALQKNVAALQERYGKEAGKFSAVSEGQGDPPGGLAPTVLAPMPLAEVELKWEMEKEEKRLLWEQLQGLESSKQAETSRLQEELAKLSEKLKKKQESFCRLQTEKETLFNDSRNKIEELQQRKEADHKAQLARTQKLQQELEAANQSLAELRDQRQGERLEHAAALRALQDQVSIQSADAQEQVEGLLAENNALRTSLAALEQIQTAKTQELNMLREQTTGLAAELQQQQAEYEDLMGQKDDLNSQLQESLRANSRLLEQLQEIGQEKEQLTQELQEARKSAEKRKAMLDELAMETLQEKSQHKEELGAVRLRHEKEVLGVRARYERELRELHEDKKRQEEELRGQIREEKARTRELETLQQTVEELQAQVHSMDGAKGWFERRLKEAEESLQQQQQEQEEALKQCREQHAAELKGKEEELQDVRDQLEQAQEERDCHLKTISSLKQEVKDTVDGQRILEKKGSAALKDLKRQLHLERKRADKLQERLQDILTNSKSRSGLEELVLSEMNSPSRTQTGDSSSISSFSYREILREKESSAVPARSLSSSPQAQPPRPAELSDEEVAELFQRLAETQQEKWMLEEKVKHLEVSSASMAEDLCRKSAIIETYVMDSRIDVSVAAGHTDRSGLGSVLRDLVKPGDENLREMNKKLQNMLEEQLTKNMHLHKDMEVLSQEIVRLSKECVGPPDPDLEPGETS [GRIPAP1] | -0.112 | 0.674 | -0.142 | 0.476 | 49.3 °C | 49.8 °C
7 | MSLKLQASNVTNKNDPKSINSRVFIGNLNTALVKKSDVETIFSKYGRVAGCSVHKGYAFVQYSNERHARAAVLGENGRVLAGQTLDINMAGEPKPDRPKGLKRAASAIYSGYIFDYDYYRDDFYDRLFDYRGRLSPVPVPRAVPVKRPRVTVPLVRRVKTNVPVKLFARSTAVTTSSAKIKLKSSELQAIKTELTQIKSNIDALLSRLEQIAAEQKANPDGKKKGDGGGAGGGGGGGGSGGGGSGGGGGGGSSRPPAPQENTTSEAGLPQGEARTRDDGDEEGLLTHSEEELEHSQDTDADDGALQ [RALY] | 0.275 | 2.9 | 8.45 | 0.116 | 47.1 °C | 49.4 °C
8 | MYTAIPQSGSPFPGSVQDPGLHVWRVEKLKPVPVAQENQGVFFSGDSYLVLHNGPEEVSHLHLWIGQQSSRDEQGACAVLAVHLNTLLGERPVQHREVQGNESDLFMSYFPRGLKYQEGGVESAFHKTSTGAPAAIKKLYQVKGKKNIRATERALNWDSFNTGDCFILDLGQNIFAWCGGKSNILERNKARDLALAIRDSERQGKAQVEIVTDGEEPAEMIQVLGPKPALKEGNPEEDLTADKANAQAAALYKVSDATGQMNLTKVADSSPFALELLISDDCFVLDNGLCGKIYIWKGRKANEKERQAALQVAEGFISRMQYAPNTQVEILPQGHESPIFKQFFKDWK [CAPG] | -0.0974 | 0.941 | 0.63 | 0.272 | 50.2 °C | 50.3 °C
9 | MEKNGNNRKLRVCVATCNRADYSKLAPIMFGIKTEPEFFELDVVVLGSHLIDDYGNTYRMIEQDDFDINTRLHTIVRGEDEAAMVESVGLALVKLPDVLNRLKPDIMIVHGDRFDALALATSAALMNIRILHIEGGEVSGTIDDSIRHAITKLAHYHVCCTRSAEQHLISMCEDHDRILLAGCPSYDKLLSAKNKDYMSIIRMWLGDDVKSKDYIVALQHPVTTDIKHSIKMFELTLDALISFNKRTLVLFPNIDAGSKEMVRVMRKKGIEHHPNFRAVKHVPFDQFIQLVAHAGCMIGNSSCGVREVGAFGTPVINLGTRQIGRETGENVLHVRDADTQDKILQALHLQFGKQYPCSKIYGDGNAVPRILKFLKSIDLQEPLQKKFCFPPVKENISQDIDHILETLSALAVDLGGTNLRVAIVSMKGEIVKKYTQFNPKTYEERINLILQMCVEAAAEAVKLNCRILGVGISTGGRVNPREGIVLHSTKLIQEWNSVDLRTPLSDTLHLPVWVDNDGNCAALAERKFGQGKGLENFVTLITGTGIGGGIIHQHELIHGSSFCAAELGHLVVSLDGPDCSCGSHGCIEAYASGMALQREAKKLHDEDLLLVEGMSVPKDEAVGALHLIQAAKLGNAKAQSILRTAGTALGLGVVNILHTMNPSLVILSGVLASHYIHIVKDVIRQQALSSVQDVDVVVSDLVDPALLGAASMVLDYTTRRIY [GNE] | -0.159 | 3.4 | 4.39 | -0.138 | 55.2 °C | 55.8 °C
10 | MEPSSLELPADTVQRIAAELKCHPTDERVALHLDEEDKLRHFRECFYIPKIQDLPPVDLSLVNKDENAIYFLGNSLGLQPKMVKTYLEEELDKWAKIAAYGHEVGKRPWITGDESIVGLMKDIVGANEKEIALMNALTVNLHLLMLSFFKPTPKRYKILLEAKAFPSDHYAIESQLQLHGLNIEESMRMIKPREGEETLRIEDILEVIEKEGDSIAVILFSGVHFYTGQHFNIPAITKAGQAKGCYVGFDLAHAVGNVELYLHDWGVDFACWCSYKYLNAGAGGIAGAFIHEKHAHTIKPALVGWFGHELSTRFKMDNKLQLIPGVCGFRISNPPILLVCSLHASLEIFKQATMKALRKKSVLLTGYLEYLIKHNYGKDKAATKKPVVNIITPSHVEERGCQLTITFSVPNKDVFQELEKRGVVCDKRNPNGIRVAPVPLYNSFHDVYKFTNLLTSILDSAETKN [KYNU] | -0.229 | -0.273 | -0.415 | 0.121 | 61.5 °C | 62.3 °C
11 | MTAPCSQPAQLPGRRQLGLVPFPPPPPRTPLLWLLLLLLAAVAPARGWESGDLELFDLVEEVQLNFYQFLGVQQDASSADIRKAYRKLSLTLHPDKNKDENAETQFRQLVAIYEVLKDDERRQRYDDILINGLPDWRQPVFYYRRVRKMSNAELALLLFIILTVGHYAVVWSIYLEKQLDELLSRKKREKKKKTGSKSVDVSKLGASEKNERLLMKPQWHDLLPCKLGIWFCLTLKALPHLIQDAGQFYAKYKETRLKEKEDALTRTELETLQKQKKVKKPKPEFPVYTPLETTYIQSYDHGTSIEEIEEQMDDWLENRNRTQKKQAPEWTEEDLSQLTRSMVKFPGGTPGRWEKIAHELGRSVTDVTTKAKQLKDSVTCSPGMVRLSELKSTVQNSRPIKTATTLPDDMITQREDAEGVAAEEEQEGDSGEQETGATDARPRRRKPARLLEATAKPEPEEKSRAKRQKDFDIAEQNESSDEESLRKERARSAEEPWTQNQQKLLELALQQYPRGSSDRWDKIARCVPSKSKEDCIARYKLLVELVQKKKQAKS [DNAJC1] | -0.0698 | 1.18 | 1.18 | 0.161 | 52.8 °C | 52.8 °C

From the supplement of paper PMC5998384
